Measurements published in patent publication US20100015637A1 (AbbVie / Abbott, published 2010).
Each block holds one binder with its values, some of them ahead of it.

How the values were obtained:
[1] = molecular target: recombinant human PlGF-1 (comprising amino acids 1-131) expressed in E. coli (R&D Systems) (human) (UniProt P49763); experiment: EIA of 24 well cultures, antibody captured on anti-mouse IgG Fc, biotin labeled human PlGF-1
[2] = molecular target: recombinant human PlGF-1 (comprising amino acids 1-131) expressed in E. coli (R&D Systems) (human) (UniProt P49763); experiment: EIA of clone supernatants, antibody captured on anti-mouse IgG Fc, biotin labeled human PlGF-1
[3] = molecular target: recombinant human PlGF-1 (comprising amino acids 1-131) expressed in E. coli (R&D Systems) (human) (UniProt P49763); experiment: EIA, supernatant antibody captured on anti-mouse IgG Fc, biotin labeled human PlGF-1 at 1500 pg/mL
[4] = molecular target: T1, human PlGF-1 (as used in Example 13; source not specified) (human) (UniProt P49763); experiment: … PlGF-1 assay; added sFlt-1 93 pM; 3.6 pM PlGF-1 without sFlt-1
T1 sequence: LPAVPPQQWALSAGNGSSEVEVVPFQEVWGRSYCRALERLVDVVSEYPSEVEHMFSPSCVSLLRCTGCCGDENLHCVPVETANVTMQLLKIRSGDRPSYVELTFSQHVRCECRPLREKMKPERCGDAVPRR

[5] = molecular target: T1, human PlGF-1 (as used in Example 13; source not specified) (human); experiment: … PlGF-1 assay; added sFlt-1 93 pM; 6.8 pM PlGF-1 without sFlt-1
[6] = molecular target: T1, human PlGF-1 (as used in Example 13; source not specified) (human); experiment: … PlGF-1 assay; added sFlt-1 186 pM; 3.6 pM PlGF-1 without sFlt-1
[7] = molecular target: T1, human PlGF-1 (as used in Example 13; source not specified) (human); experiment: … PlGF-1 assay; added sFlt-1 186 pM; 6.8 pM PlGF-1 without sFlt-1
[8] = molecular target: T1, human PlGF-1 (as used in Example 13; source not specified) (human); experiment: … PlGF-1 assay; added sFlt-1 389 pM; 3.6 pM PlGF-1 without sFlt-1
[9] = molecular target: T1, human PlGF-1 (as used in Example 13; source not specified) (human); experiment: … PlGF-1 assay; added sFlt-1 389 pM; 6.8 pM PlGF-1 without sFlt-1
[10] = molecular target: T1, human PlGF-1 (as used in Example 13; source not specified) (human); experiment: … PlGF-1 assay; added sFlt-1 788 pM; 3.6 pM PlGF-1 without sFlt-1
[11] = molecular target: T1, human PlGF-1 (as used in Example 13; source not specified) (human); experiment: … PlGF-1 assay; added sFlt-1 788 pM; 6.8 pM PlGF-1 without sFlt-1
[12] = molecular target: T1, human PlGF-1 (as used in Example 13; source not specified) (human); experiment: … PlGF-1 assay; added sFlt-1 93 pM; 13.3 pM PlGF-1 without sFlt-1
[13] = molecular target: T1, human PlGF-1 (as used in Example 13; source not specified) (human); experiment: … PlGF-1 assay; added sFlt-1 93 pM; 27.1 pM PlGF-1 without sFlt-1
[14] = molecular target: T1, human PlGF-1 (as used in Example 13; source not specified) (human); experiment: … PlGF-1 assay; added sFlt-1 93 pM; 40.5 pM PlGF-1 without sFlt-1
[15] = molecular target: T1, human PlGF-1 (as used in Example 13; source not specified) (human); experiment: … PlGF-1 assay; added sFlt-1 186 pM; 13.3 pM PlGF-1 without sFlt-1
[16] = molecular target: T1, human PlGF-1 (as used in Example 13; source not specified) (human); experiment: … PlGF-1 assay; added sFlt-1 186 pM; 27.1 pM PlGF-1 without sFlt-1
[17] = molecular target: T1, human PlGF-1 (as used in Example 13; source not specified) (human); experiment: … PlGF-1 assay; added sFlt-1 186 pM; 40.5 pM PlGF-1 without sFlt-1
[18] = molecular target: T1, human PlGF-1 (as used in Example 13; source not specified) (human); experiment: … PlGF-1 assay; added sFlt-1 389 pM; 13.3 pM PlGF-1 without sFlt-1
[19] = molecular target: T1, human PlGF-1 (as used in Example 13; source not specified) (human); experiment: … PlGF-1 assay; added sFlt-1 389 pM; 27.1 pM PlGF-1 without sFlt-1
[20] = molecular target: T1, human PlGF-1 (as used in Example 13; source not specified) (human); experiment: … PlGF-1 assay; added sFlt-1 389 pM; 40.5 pM PlGF-1 without sFlt-1
[21] = molecular target: T1, human PlGF-1 (as used in Example 13; source not specified) (human); experiment: … PlGF-1 assay; added sFlt-1 788 pM; 13.3 pM PlGF-1 without sFlt-1
[22] = molecular target: T1, human PlGF-1 (as used in Example 13; source not specified) (human); experiment: … PlGF-1 assay; added sFlt-1 788 pM; 27.1 pM PlGF-1 without sFlt-1
[23] = molecular target: T1, human PlGF-1 (as used in Example 13; source not specified) (human); experiment: … PlGF-1 assay; added sFlt-1 788 pM; 40.5 pM PlGF-1 without sFlt-1
[24] = molecular target: T1, human PlGF-1 (as used in Example 13; source not specified) (human); experiment: … PlGF-1 assay; added sFlt-1 1,181 pM; 3.6 pM PlGF-1 without sFlt-1
[25] = molecular target: T1, human PlGF-1 (as used in Example 13; source not specified) (human); experiment: … PlGF-1 assay; added sFlt-1 1,181 pM; 6.8 pM PlGF-1 without sFlt-1
[26] = molecular target: T1, human PlGF-1 (as used in Example 13; source not specified) (human); experiment: … PlGF-1 assay; added sFlt-1 1,181 pM; 13.3 pM PlGF-1 without sFlt-1
[27] = molecular target: T1, human PlGF-1 (as used in Example 13; source not specified) (human); experiment: … PlGF-1 assay; added sFlt-1 1,181 pM; 27.1 pM PlGF-1 without sFlt-1
[28] = molecular target: T1, human PlGF-1 (as used in Example 13; source not specified) (human); experiment: … PlGF-1 assay; added sFlt-1 1,181 pM; 40.5 pM PlGF-1 without sFlt-1
[29] = molecular target: T1, human PlGF-1 (as used in Example 13; source not specified) (human); experiment: … PlGF-1 assay after 16 h incubation of PlGF-1 with sFlt-1 (data not shown)
[30] = molecular target: T1, human PlGF-1 (as used in Example 13; source not specified) (human); experiment: … PlGF-1 assay after 16 h incubation of PlGF-1 with sFlt-1 up to 12 nM (data not shown)

EIA signal relative to background (fold over background) [1]: > 3
EIA signal relative to background (fold over background) [2]: > 3
EIA signal relative to background (fold over background) [3]: 3
B1: anti-human PlGF-1 monoclonal antibody from clone 1-255-189 (antibody, V domains shown)
VH: QVHLQQSGAELMKPGASVKISCKATGYTFSSYWIEWVKQRPGHGLEWIGEILPGSVSNNFNEKFKDKATLTADPSSNTAYIQVSSLTSEDSAVYYCARSTGFYYGGNYFDHWGQGTTLAVSS
VL: DVVMTQTPLSLPVSPGDQASISCRSSQSLVHSNGHTYLHWYLQKPGQSPKLLIYKVSNRFSGVPDRVSGSGSGTDFTLKISRVEAEDLGVYFCSQSTHVPPTFGGGTKLEIKR

EIA signal relative to background (fold over background) [1]: > 3
EIA signal relative to background (fold over background) [2]: > 3
EIA signal relative to background (fold over background) [3]: > 3
B2: anti-human PlGF-1 monoclonal antibody from clone 2-826-127 (antibody, V domains shown)
VH: QVQLKQSGPGLVQPSQSLSITCTVSGFSLTTYGIHWVRQSPGKGLEWLGVMWSGGDTDYDAAFISRLSISKDNSKSQVFFKMNSLQANDTGIYYCARYRFYGMDYWGQGTSVTVSS
VL: AIQMTQSSSSFSVSLGDRVTITCKASEDIYNRFAWYQQKPGNAPRLLISGAASLEAGVPSRFSGSGSGQDYTLSITSLQTEDVATYYCQQYWSTPWTFGGGTKLEIKR

Measured Human PlGF-1 [4]: 1.5 pM
percent change in measured PlGF-1 vs. no sFlt-1 [4]: -58%
Measured Human PlGF-1 [5]: 3.1 pM
percentage of inhibition [5]: -55%
Measured Human PlGF-1 [6]: 1.2 pM
percent change in measured PlGF-1 [6]: -65%
Measured Human PlGF-1 [7]: 2.4 pM
percent change in measured PlGF-1 vs. no sFlt-1 [7]: -65%
Measured Human PlGF-1 [8]: 1.2 pM
percent change in measured PlGF-1 versus without sFlt-1 [8]: -67%
Measured Human PlGF-1 [9]: 2 pM
percent change in measured PlGF-1 [9]: -70%
Measured Human PlGF-1 [10]: 1.2 pM
percent change in measured PlGF-1 versus no sFlt-1 [10]: -66%
Measured Human PlGF-1 [11]: 1.9 pM
percent change in measured PlGF-1 [11]: -72%
Measured Human PlGF-1 [12]: 6.7 pM
percent change in measured PlGF-1 [12]: -49%
Measured Human PlGF-1 [13]: 15.6 pM
percent change in measured PlGF-1 versus no sFlt-1 [13]: -42%
Measured Human PlGF-1 [14]: 25.9 pM
percent change in measured PlGF-1 [14]: -36%
Measured Human PlGF-1 [15]: 4.9 pM
percent change in measured PlGF-1 [15]: -63%
Measured Human PlGF-1 [16]: 10.6 pM
percent change in measured PlGF-1 vs. no sFlt-1 [16]: -61%
Measured Human PlGF-1 [17]: 17.8 pM
percent change in measured PlGF-1 [17]: -56%
Measured Human PlGF-1 [18]: 3.8 pM
percent change in measured PlGF-1 vs. no sFlt-1 [18]: -72%
Measured Human PlGF-1 [19]: 7.5 pM
percent change in measured PlGF-1 vs. no sFlt-1 [19]: -72%
Measured Human PlGF-1 [20]: 12.2 pM
percent change in measured PlGF-1 vs. no sFlt-1 [20]: -70%
Measured Human PlGF-1 [21]: 3.3 pM
percent change in measured PlGF-1 vs. no sFlt-1 [21]: -76%
Measured Human PlGF-1 [22]: 6.1 pM
percent change in measured PlGF-1 vs. without sFlt-1 [22]: -78%
Measured Human PlGF-1 [23]: 9.2 pM
percent change in measured PlGF-1 vs. without sFlt-1 [23]: -77%
Measured Human PlGF-1 [24]: 1.3 pM
percent change in measured PlGF-1 versus without sFlt-1 [24]: -64%
Measured Human PlGF-1 [25]: 1.9 pM
percent change in measured PlGF-1 vs. without sFlt-1 [25]: -72%
Measured Human PlGF-1 [26]: 3 pM
percent change in measured PlGF-1 [26]: -77%
Measured Human PlGF-1 [27]: 5.4 pM
percent change in measured PlGF-1 [27]: -80%
Measured Human PlGF-1 [28]: 7.8 pM
percent change in measured PlGF-1 versus no sFlt-1 [28]: -81%
molar excess of sFlt-1 for 90% maximum inhibition [29]: 40 fold
% inhibition of the human PlGF-1 assay [30]: 90%
B3: sFlt-1 (as used in Example 13; preparation not specified) (receptor, not shown: a dimerising Fc or GST; small tags and cut ends)
chain: SKLKDPELSLKGTQHIMQAGQTLHLQCRGEAAHKWSLPEMVSKESERLSITKSACGRNGKQFCSTLTLNTAQANHTGFYSCKYLAVPTSKKKETESAIYIFISDTGRPFVEMYSEIPEIIHMTEGRELVIPCRVTSPNITVTLKKFPLDTLIPDGKRIIWDSRKGFIISNATYKEIGLLTCEATVNGHLYKTNYLTHRQTNTIIDVQISTPRPVKLLRGHTLVLNCTATTPLNTRVQMTWSYPDEKNKRASVRRRIDQSNSHANIFYSVLTIDKMQNKDKGLYTCRVRSGPSFKSVNTSVHI
modifications: glycosylated; the chimera is dimerised through its Fc, if that preparation was the one used
